Broadly, the Kd is the free concentration of one partner at which half of the binding sites on the other are occupied at equilibrium, for simple one-to-one binding. A lower Kd goes with higher affinity.

One experiment deals with GST–RanGTP (UniProt P62826). Kind of experiment: ELISA. For orientation: ELISA stands for enzyme-linked immunosorbent assay.
Take “wild-type importin β (from UniProt Q14974 1-876) (natural protein; other documents disagree on this pair)”: the Kd worked out at 3.3 nM.

The next experiment concerns the target importin α (UniProt P52292). Kind of experiment: ELISA.
“importin β E214A (from UniProt Q14974 1-876) (natural protein)”: the Kd was 1.3 nM.

The substance “importin β I178A (from UniProt Q14974 1-876) (natural protein)” had a Kd of 1.1 nM. With “importin β I178A/F217A/Y255A/I263R (m-N) (from UniProt Q14974 1-876) (natural protein)”, the Kd amounted to 1.2 nM. Substance “importin β I178D (from UniProt Q14974 1-876) (natural protein)” returned a Kd of 1.2 nM.

In turn, “importin β I178D/Y255A (from UniProt Q14974 1-876) (natural protein)” registered a Kd of 1.1 nM.

Regarding “importin β I263R (from UniProt Q14974 1-876) (natural protein)”, the Kd was 0.9 nM. Same read-out and setting: the result for “wild-type importin β (from UniProt Q14974 1-876) (natural protein)” reads 0.9 nM.

Another experiment deals with importin α (UniProt P52292). Description: ELISA. This is another data set of the same source.
Take “importin β (304–876) (from UniProt Q14974 304-876) (domain or fragment)”: the dissociation constant (Kd) is 2.5 nM.

In turn, “importin β I178A/F217A/Y255A/I263R (m-N) (from UniProt Q14974 1-876) (natural protein)” gave a Kd of 1.1 nM.

For “importin β L612D/F688A (m-C) (from UniProt Q14974 1-876) (natural protein)”, the Kd amounted to 2.2 nM. In turn, “importin β m-C (304–876) (from UniProt Q14974 304-876) (domain or fragment)” gave a Kd of 4.3 nM. “importin β m-N/m-C (from UniProt Q14974 1-876) (natural protein)”: the Kd worked out at 2.1 nM. Still for that read-out and setting: the result for “wild-type importin β (from UniProt Q14974 1-876) (natural protein)” reads 0.9 nM.

The values are drawn from paper PMC2172684.
